Here are results for 116 sequences from the supplement of paper PMC10724198.

± gives the standard deviation of the averaged measurements.
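Note: PSI is a weighted mean of sequencing reads over stability bins, variants kept only with over 10 reads, mCherry proximal and sfGFP distal, peptide attached via GGGS linker.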

The test system of the series is Saccharomyces cerevisiae. As to the kind of experiment: protein stability index of tFT-peptide fusion (C-terminal peptide) (PSI (0-1 scale)); higher = more stable (slower turnover). Particulars: genetic background: wild type; temperature: 30 C.
Consider LLRFRSFPSAFF, for which the protein stability index stood at 0.723 ± 0.084. With LLRFSFLHFLFY the figure was 0.6116 ± 0.003; with LLRSSASISLKK, 0.738 ± 0.059; with LLRVMRAVFSGL, 0.623 ± 0.015. With LLSIGTSTLFLL the figure was 0.636 ± 0.017. Under LLSLVSDFLFGL stands 0.698 ± 0.042. Sequence LLSPHPSCRPTP came in with a protein stability index of 0.584 ± 0.037. Under LLSPSPPLLPPL stands 0.763 ± 0.036. Under LLYAFSSFLRAP stands 0.647 ± 0.046. Under LLYSTRRCIFEF stands 0.645 ± 0.034; under LNIVVTQNKNKK, 0.73 ± 0.035; under LNPPYLAPPPPF, 0.739 ± 0.045. LPAPAGPEPPRT registered a protein stability index of 0.6747 ± 0.00069. Under LPAPPPLPPPHP stands 0.712 ± 0.065; under LPAPPPPPRPLA, 0.683 ± 0.021; under LPASAPFPLSPP, 0.7 ± 0.035. Under LPDAPCLCSGLL stands 0.714 ± 0.013; under LPFTLLPPVLSL, 0.596 ± 0.0062; under LPGFPPSLLPRL, 0.777 ± 0.059. LPGGVGCVGSPV yielded a protein stability index of 0.721 ± 0.037. The sequence LPGLSRATTVYP returned a protein stability index of 0.679 ± 0.065. With LPGPICSPPTGS the figure was 0.693 ± 0.011.

LPGSLISPSSPP came in with a protein stability index of 0.721 ± 0.021.

With LPHLDPPPLPPP, the protein stability index is 0.6386 ± 0.0052. Under LPHSNWAGRVIE stands 0.703 ± 0.025; under LPHTVITVPDPQ, 0.628 ± 0.065.

As to LPLHRFHPPPPY, the protein stability index worked out at 0.715 ± 0.041. LPLPHALGSWSY had a protein stability index of 0.7278 ± 0.0061. With LPLPPPPAPPPL the figure was 0.7015 ± 0.0012.

For the sequence LPLPVPSLPSAP, the protein stability index turned out to be 0.728 ± 0.019. Sequence LPLSFPTLPPPP yielded a protein stability index of 0.66 ± 0.055. Under LPLSPRCFSLLG stands 0.6774 ± 0.0023; under LPLSTLGPLARL, 0.725 ± 0.18; under LPLVLSPSPPHP, 0.711 ± 0.061. With LPLVSLLCLLPR the figure was 0.668 ± 0.038; with LPLYPFGLLLPL, 0.686 ± 0.043; with LPPAAPPPPIPA, 0.599 ± 0.0079. Regarding LPPASSPPLLTP, the protein stability index worked out at 0.696 ± 0.083. LPPAVIVCVLPS came in with a protein stability index of 0.586 ± 0.0097. With LPPGSTPDSPTL the figure was 0.706 ± 0.028; with LPPHSPALRLPR, 0.708 ± 0.0097; with LPPIAFPPSFSP, 0.69983 ± 0.00059. As for LPPLGAPQPPPP, the protein stability index is 0.731 ± 0.021. With LPPLPLPPATTP the figure was 0.715 ± 0.04; with LPPLPLRSLSSP, 0.746 ± 0.025; with LPPLPPLILFPL, 0.684 ± 0.082. In turn, LPPLPPRVLFNL had a protein stability index of 0.5604 ± 0.00084. In the case of LPPPAAPPPALA, the protein stability index turned out to be 0.691 ± 0.032. Under LPPPHYPHHTAS stands 0.679 ± 0.052.

In the case of LPPPLPPPGPPF, the protein stability index is 0.715 ± 0.013. With LPPPPHRSRPPP the figure was 0.66 ± 0.06. In turn, LPPPPPPPPLLP had a protein stability index of 0.696 ± 0.0022. LPPPPPPPPSTP had a protein stability index of 0.734 ± 0.0076. With LPPPPSPESPLS, the protein stability index came out at 0.722 ± 0.045. With LPPPRPHLSFVP, the protein stability index turned out to be 0.72 ± 0.012. For the sequence LPPPSPPPPLSP, the protein stability index worked out at 0.621 ± 0.01.

The sequence LPPPSPTGTFPP registered a protein stability index of 0.7 ± 0.095. LPPPTLASTPPP returned a protein stability index of 0.77 ± 0.045. With LPPPVSPLVCLL the figure was 0.752 ± 0.047; with LPPSPEPLPPRR, 0.717 ± 0.059.

In turn, LPPSPLLLTSPP returned a protein stability index of 0.687 ± 0.016. Under LPPSPPLSPITS stands 0.55 ± 0.024; under LPRAPPPPPLLL, 0.757 ± 0.0076. In turn, LPRPSALLLRSL came in with a protein stability index of 0.5 ± 0.12. With LPRPYRPASTCT the figure was 0.656 ± 0.016; with LPRRSSRRQYAA, 0.751 ± 0.022. On to LPRSASLHVRPH, for which the protein stability index turned out to be 0.707 ± 0.023. In turn, LPSFPRISPPSI returned a protein stability index of 0.656 ± 0.016. Consider LPSLLYIFPPLS, for which the protein stability index amounted to 0.6975 ± 0.0068. With LPSPPPAPTPGP the figure was 0.681 ± 0.019; with LPSPRPSPSRVP, 0.676 ± 0.038. With LPSTLLLPLASP, the protein stability index worked out at 0.712 ± 0.018. LPTLPLPHRHHL showed a protein stability index of 0.742 ± 0.0072. Under LPTSTRRGGSHG stands 0.6911 ± 0.0055; under LPVCAFGWPVKS, 0.6566 ± 0.0037. LPVDPPLGGHPT: the protein stability index amounted to 0.655 ± 0.03. Under LPWCSTLEIRER stands 0.694 ± 0.011. With LPYSPPSLTLPR the figure was 0.666 ± 0.086; with LQFSTSMGVLMV, 0.591 ± 0.01. In the case of LQHGKSRCAFRK, the protein stability index is 0.652 ± 0.026. Sequence LQPATGPQRVIS returned a protein stability index of 0.665 ± 0.03. Under LQSGALEHLGAS stands 0.716 ± 0.074. Under LQSPGAFFSVSK stands 0.7 ± 0.018.

Turning to LQTLPAPHTPFP, the protein stability index came to 0.643 ± 0.039. On to LQWAAGLRTTSP, for which the protein stability index amounted to 0.692 ± 0.071. The sequence LRARSSKPPYWL had a protein stability index of 0.737 ± 0.028. With LRAWPILPSRVL the figure was 0.641 ± 0.014; with LRCRLCRFFPFL, 0.714 ± 0.044.

The sequence LRFGLRCPLYHL had a protein stability index of 0.799 ± 0.11. Under LRFLVVTGSSCS stands 0.665 ± 0.052; under LRGGGGIVVGVV, 0.563 ± 0.012; under LRGGSRWVSGGY, 0.636 ± 0.026.

Take LRGKLGNCLGLL: the protein stability index amounted to 0.733 ± 0.028. Under LRGLIDVKSSLK stands 0.758 ± 0.052. Sequence LRGLVGEYRRLK returned a protein stability index of 0.656 ± 0.057. Under LRGVGGAGVFFG stands 0.675 ± 0.025; under LRGVSGTLSSSC, 0.6733 ± 0.0045. Under LRKSSIQRQKKR stands 0.653 ± 0.034; under LRLAVVSHSCGA, 0.639 ± 0.023; under LRLFAGTFSGTP, 0.698 ± 0.03.

For LRLIPPLTTFDY, the protein stability index is 0.645 ± 0.098. With LRLLRPVPPRVF the figure was 0.5405 ± 0.0019; with LRLPSPLPSPPS, 0.6283 ± 0.0034. The sequence LRLTCRPWGLFF had a protein stability index of 0.6377 ± 0.0051. Turning to LRPPLPPPCPPP, the protein stability index worked out at 0.599 ± 0.12. With LRPPPPPASVCR, the protein stability index was determined as 0.646 ± 0.029. In turn, LRPPSCCPLEIQ returned a protein stability index of 0.705 ± 0.076. In turn, LRPQKIPASSEA showed a protein stability index of 0.678 ± 0.0077.

LRQRAHRPYFRS returned a protein stability index of 0.706 ± 0.019. With LRSGRCFFVARL the figure was 0.73 ± 0.068; with LRSMLRCPSPLS, 0.759 ± 0.031; with LRSPPPPAQPFV, 0.69 ± 0.0075. LRTRKKTIDHHN: the protein stability index was 0.663 ± 0.013. With LRVGGKRREVMG the figure was 0.709 ± 0.055. Under LRVYIRAAWVGL stands 0.604 ± 0.016; under LSALGGVLWWWC, 0.616 ± 0.026.
